Here are results for nine molecules from publication PMC8484739 (The Journal of Biological Chemistry, 2021).

Usually Kd stands for a measure of binding affinity in units of concentration. Read a low Kd as higher affinity. As usually defined, the koff is the first-order rate constant of dissociation. A high value points to a short-lived complex. The kon is the second-order rate constant of association. A low value points to slow association. In general, stoichiometry N refers to the number of molecules, sites or subunits per partner or assembly.

For data set [1], the target named is wild type CD70-His-Avi (human) (UniProt P32970). Kind of data set: SPR.
Data set [2] has the same target. Kind of data set: SPR. This is another data set of the same source. A general note: SPR reads the build-up and loss of mass on a sensor chip optically.
For data set [3] the target is unchanged. In words: SPR. The source holds these as a separate data set.
The target in data set [4] is human CD70 S137K, His-Avi tagged, purified (human) (UniProt P32970). Kind of data set: SPR.
Another data set has as its target CD70-A80F (human) (UniProt P32970). Kind of data set: SPR.
In another data set the target is CD70-A80R (human) (UniProt P32970). Kind of data set: SPR.
The target of a further data set is CD70-H148A (human) (UniProt P32970). In words: SPR.
Another data set concerns the target CD70-H148D (human) (UniProt P32970). Kind of data set: SPR.
The target of a further data set is CD70-H148E (human) (UniProt P32970). Kind of data set: SPR.
Another data set concerns the target CD70-Q61A (human) (UniProt P32970). Kind of data set: SPR.
For a further data set, the target named is CD70-S137A (human) (UniProt P32970). In words: SPR.
The next data set has as its target CD70-S137E (human) (UniProt P32970). Kind of data set: SPR.
A further data set concerns the target CD70-S137K (human) (UniProt P32970). Kind of data set: SPR.
The next data set deals with CD70-S146A (human) (UniProt P32970). In words: SPR.
For a further data set, the target named is T1, wild type CD70-His-Avi (human, UniProt P32970 45-193).
T1 sequence (looked up): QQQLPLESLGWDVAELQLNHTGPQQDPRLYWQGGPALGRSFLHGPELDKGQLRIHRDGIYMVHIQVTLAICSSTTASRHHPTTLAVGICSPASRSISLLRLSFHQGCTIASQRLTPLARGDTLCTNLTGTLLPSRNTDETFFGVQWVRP
In words: SPR.

The data set “SEC” concerns the molecule itself. In words: SEC. (In general: Size exclusion chromatography separates by hydrodynamic size, large species first.)

Substitutions are numbered along the chain they refer to. Numbers in names are those of the source. Read-outs that look alike come from different tables or passages of the source.

Turning to “human CD27 wild-type (glycosylated) (from UniProt P26842 23-127) (receptor)”, the Kd in [1] was 0.135 µM; in data set [2] it was 0.121 µM; in data set [3], 0.134 µM. Besides, in [3], the half-life (calculated from kd) is 2.67 min.
Regarding “deglycosylated human CD27 (from UniProt P26842 23-127) (receptor)”, in [3], the Kd worked out at 0.118 µM and the half-life (calculated from kd) is 1.9 min.

B1: human CD27 wild type, glycosylated (residues A23-S127) (receptor)
chain: APKSCPERHYWAQGKLCCQMCEPGTFLVKDCDQHRKAAQCDPCIPGVSFSPDHHTRPHCESCRHCNSGLLVRNCTITANAECACRNGWQCRDKECTECDPLPNPS
modifications: N-linked glycan (glycosylated form)
As to B1, the Kd in data set [4] amounted to 0.113 µM.

B2: human CD27 wild-type (glycosylated) (receptor)
chain: B1 chain
modifications: N-linked glycans kept (glycosylated; no Endo H digestion)
Turning to B2, the Kd with CD70-A80F (human) turned out to be 0.643 µM; in the data set with CD70-A80R (human) it was 0.163 µM; with CD70-H148A (human), 0.236 µM; in the data set with CD70-H148D (human), 0.477 µM; with CD70-H148E (human), 0.38 µM; with CD70-Q61A (human), 0.205 µM. The dissociation constant Kd is 0.156 µM with CD70-S137A (human), 0.526 µM with CD70-S137E (human), 0.135 µM in the data set with CD70-S137K (human) and 0.116 µM with CD70-S146A (human).

B3: CD27-N95A (receptor, human, UniProt P26842 23-127, looked up)
chain: B1 chain with N73A
In the data set with wild type CD70-His-Avi, B3 showed a Kd of 0.1 µM, a koff of 0.00726 s⁻¹ and a kon of 72500 M⁻¹ s⁻¹.

B4: CD27-S83A (receptor, human, UniProt P26842 23-127, looked up)
chain: B1 chain with S61A
modifications: glycosylated
Turning to B4, in the data set with wild type CD70-His-Avi, the Kd stood at 0.254 µM, the off-rate constant (koff) was 0.00854 s⁻¹ and the kon came to 33600 M⁻¹ s⁻¹.

B5: CD27-R30A (receptor, human, UniProt P26842 23-127, looked up)
chain: B1 chain with R8A
modifications: glycosylated
In the data set with wild type CD70-His-Avi, B5 had a dissociation constant Kd of 0.351 µM, a koff of 0.0047 s⁻¹ and a kon of 13400 M⁻¹ s⁻¹.

B6: CD27-K115A (receptor, human, UniProt P26842 23-127, looked up)
chain: B1 chain with K93A
modifications: glycosylated
In the data set with wild type CD70-His-Avi, B6 yielded an equilibrium dissociation constant (Kd) of 0.102 µM, a koff of 0.00351 s⁻¹ and an on-rate constant (kon) of 34500 M⁻¹ s⁻¹.

B7: glycosylated human CD70 (crystallisation construct) (ligand, UniProt P32970 45-193, looked up)
chain: T1 sequence (looked up)
modifications: N-linked glycans on N63 and N170; core fucosylation at N63
Turning to B7, the “stoichiometry N” value in the data set “SEC” was determined as 3.
